This is an account of results in patent publication US9694061B2, “Fully human antibodies to high molecular weight-melanoma associated antigen and uses thereof” (University of Pittsburgh—Of the Commonwealth System of …, priority 2008, dated 2017).

The assay concerns the target HMW-MAA (Homo sapiens, UniProt Q6UVK1). Kind of assay: Indirect immunoprecipitation and SDS-PAGE from labeled Colo38 cell lysate. Format: binding. How it is done:
FIG. 3. Structural relationship between molecules recognized by scFv C21 and by HMW-MAA-specific mouse mAb 763.74 in a HMW-MAA^+ Colo38 cell lysate. A 1% NP-40 extract of ^125I-labeled Colo38 cells was immunodepleted with mAb 763.74. The immunodepleted cell extract was immunoprecipitated with insolubilized mAb 763.74 and scFv C21. Antigens were eluted and analyzed by SDS-PAGE in an 8% polyacrylamide gel. Gels were fixed, dried and autoradiographed for up to 1 day at −80° C. A 1% NP-40 extract of ^125I-labeled Colo38 cells immunodepleted with 100 kD MAA-specific mouse mAb 376.94 was used as a control.
FIG. 4. Role of N-linked glycosylation in the expression of the antigenic determinant recognized by scFv C21 on HMW-MAA isolated from a HMW-MAA^+ Colo38 cell extract. A 1% NP-40 extract of Colo38 cells labelled with ^35S-methionine in the presence of tunicamycin (0, 2 and 3 μg/ml,) was immunoprecipitated with scFv C21. Antigens were eluted from the immunoadsorbent and analyzed by SDS-PAGE in an 8% polyacrylamide gel. Gels were fixed, dried and processed for fluorography for up to three days at −80° C. using Hyperfilm-ECL. HMW-MAA-specific mouse mAb 763.74 was used as a control.
Labeling of cells with ^125Iodine (Na^125 I; Amersham) or with ^35S methionine (Trans-^35S-label, ICN Biochemicals, Costa Mesa, Calif.) in the presence of tunicamycin (Sigma Chemical Co.) was performed as described (Noronha et al., J Immunol 161:2968-2976, 1998; Desai et al., J Immunol 165:3275-3283, 2000). Solubilization of labelled cells, immunoprecipitation, SDS-PAGE, autoradiography and fluorography were performed as described (Desai et al., Cancer Res 58:2417-2425, 1998) except for the use of Gammon Bind plus sepharose (Amersham) instead of protein A coated with rabbit anti-mouse IgG antibodies.

Sequence of HMW-MAA (Q6UVK1 30-2322): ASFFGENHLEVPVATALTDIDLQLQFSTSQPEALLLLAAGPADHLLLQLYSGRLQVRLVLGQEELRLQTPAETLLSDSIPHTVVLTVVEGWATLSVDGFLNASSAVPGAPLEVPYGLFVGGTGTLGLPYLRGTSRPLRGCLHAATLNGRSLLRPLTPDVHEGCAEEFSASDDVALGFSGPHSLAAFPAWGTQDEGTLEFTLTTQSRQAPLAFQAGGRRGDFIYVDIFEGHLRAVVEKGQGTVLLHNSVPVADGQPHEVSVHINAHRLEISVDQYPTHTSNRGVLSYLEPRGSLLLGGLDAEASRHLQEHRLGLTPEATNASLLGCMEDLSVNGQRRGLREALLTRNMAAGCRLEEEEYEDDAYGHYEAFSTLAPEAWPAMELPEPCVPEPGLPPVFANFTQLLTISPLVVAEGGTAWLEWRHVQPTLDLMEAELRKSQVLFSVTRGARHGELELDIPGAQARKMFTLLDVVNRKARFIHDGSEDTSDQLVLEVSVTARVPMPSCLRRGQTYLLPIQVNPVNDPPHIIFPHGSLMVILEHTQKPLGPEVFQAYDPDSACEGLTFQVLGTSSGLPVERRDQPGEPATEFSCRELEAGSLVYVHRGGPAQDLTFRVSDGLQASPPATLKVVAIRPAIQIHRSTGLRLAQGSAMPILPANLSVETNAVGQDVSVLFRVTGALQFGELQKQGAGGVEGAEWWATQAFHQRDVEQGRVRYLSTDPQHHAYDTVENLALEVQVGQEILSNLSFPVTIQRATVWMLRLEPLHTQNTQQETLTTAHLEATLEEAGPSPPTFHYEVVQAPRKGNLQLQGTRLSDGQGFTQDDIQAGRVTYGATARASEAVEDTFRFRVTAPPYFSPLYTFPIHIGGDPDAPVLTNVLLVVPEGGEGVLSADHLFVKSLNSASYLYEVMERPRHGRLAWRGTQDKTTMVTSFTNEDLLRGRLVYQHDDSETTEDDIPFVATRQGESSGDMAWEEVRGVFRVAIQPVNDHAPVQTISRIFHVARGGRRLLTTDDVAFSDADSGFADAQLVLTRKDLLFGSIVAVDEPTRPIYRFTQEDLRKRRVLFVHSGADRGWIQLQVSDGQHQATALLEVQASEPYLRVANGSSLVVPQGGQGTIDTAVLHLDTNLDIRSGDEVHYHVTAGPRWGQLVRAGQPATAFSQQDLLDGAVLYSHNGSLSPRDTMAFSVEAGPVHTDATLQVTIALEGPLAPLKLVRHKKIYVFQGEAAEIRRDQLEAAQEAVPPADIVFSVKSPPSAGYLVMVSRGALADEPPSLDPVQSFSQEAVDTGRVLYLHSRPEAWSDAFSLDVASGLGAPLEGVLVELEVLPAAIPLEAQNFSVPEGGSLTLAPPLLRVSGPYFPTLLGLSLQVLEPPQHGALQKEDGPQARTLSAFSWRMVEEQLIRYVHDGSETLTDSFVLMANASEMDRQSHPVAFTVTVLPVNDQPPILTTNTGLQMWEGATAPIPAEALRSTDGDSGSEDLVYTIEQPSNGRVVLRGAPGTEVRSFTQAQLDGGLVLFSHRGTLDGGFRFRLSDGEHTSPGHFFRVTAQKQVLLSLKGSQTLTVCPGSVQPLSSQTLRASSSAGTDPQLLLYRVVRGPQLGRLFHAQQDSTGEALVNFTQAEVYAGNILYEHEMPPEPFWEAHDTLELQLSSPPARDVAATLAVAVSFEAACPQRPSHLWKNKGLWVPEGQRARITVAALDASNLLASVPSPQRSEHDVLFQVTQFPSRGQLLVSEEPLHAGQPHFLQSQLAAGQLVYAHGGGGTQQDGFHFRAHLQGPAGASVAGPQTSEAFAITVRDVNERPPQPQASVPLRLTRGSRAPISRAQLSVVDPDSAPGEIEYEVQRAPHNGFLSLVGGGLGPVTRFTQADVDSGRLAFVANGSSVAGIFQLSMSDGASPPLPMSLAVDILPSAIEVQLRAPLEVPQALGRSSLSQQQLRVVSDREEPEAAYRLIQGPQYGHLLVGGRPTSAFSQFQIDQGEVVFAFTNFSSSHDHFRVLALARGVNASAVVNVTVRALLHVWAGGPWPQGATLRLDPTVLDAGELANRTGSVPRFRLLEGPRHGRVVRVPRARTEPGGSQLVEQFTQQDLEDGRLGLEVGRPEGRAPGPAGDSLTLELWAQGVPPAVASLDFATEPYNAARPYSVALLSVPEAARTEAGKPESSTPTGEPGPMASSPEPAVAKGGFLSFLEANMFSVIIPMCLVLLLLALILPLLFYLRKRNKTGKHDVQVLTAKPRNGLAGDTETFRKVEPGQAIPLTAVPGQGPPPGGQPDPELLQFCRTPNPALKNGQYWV

B1: scFv C21: HMW-MAA-specific fully human scFv from semi-synthetic phage display library; VH SEQ ID NO: 5, VL SEQ ID NO: 6 (antibody, listed as Homo sapiens, V domains shown)
VH: QVQLVQSGAEVKKPGSSVKVSCKASGGTFSSYAISWVRQAPGQGLEWMGGIIPIFGTANYAQKFQGRVTITADESTSTAYMELSSLRSDDTAVYYCARALDPITFDSWGQGTLVTVSR
VL: SELTQDPAVSVALGQTVRITCQGDSLRSYYASWYQQKPGQAPVLVIYGKNNRPSGIPDRFSGSSSGNTASLTITGAQAEDEADYYCNSRDSSGNHVVFGGGTKLTVLGRS
modifications: scFv linker
As to B1, the “Effect of immunodepletion of Colo38 cell lysate with scFv C21 on components immunoprecipitated by mAb 763.74” value is on record as “removed most, but not all the components immunoprecipitated by mAb 763.74” and the “Immunoprecipitation from 125I labeled Colo38 cells” value is “immunoprecipitated two components with the characteristic elecrophoretic profile of HMW-MAA components”. For the same molecule, the “Intensity of HMW-MAA components immunoprecipitated from Colo38 cells labeled in the presence of tunicamycin” value (35S-methionine labeling, N-glycosylation inhibitor tunicamycin) is on record as “marked reduction in the intensity of the HMW-MAA components immunoprecipitated”. For the same molecule, where the note is “sequential immunoprecipitation”, the “Immunoprecipitation from Colo38 cell lysate immunodepleted with mAb 763.74” value is listed as “did not immunoprecipitate any components”. Further, the “Immunoprecipitation from Colo38 cell lysate immunodepleted with 100KD MAA-specific mAb 376.96” value (specificity control of immunodepletion) was “immunoprecipitated the HMW-MAA components”.
